Laboratory results as given in patent publication US20140335077A1, “Compositions and Methods for the Treatment of Cancer Using IGF-IR Antagonists and MAPK/ERK Inhibitors” (priority 2013, published 2014).

Legend:
Assay type in all cases: cell-based
[1] = system: Ewing's sarcoma (ES) cell lines: SKES, RDES, CADO, A673 and SKNMC; experiment: Cell viability of Ewing's sarcoma cell lines (PrestoBlue); settings: 48 h
Protocol: FIG. 1A-FIG. 1C. Effects of Figitumumab (CP-751871 (CP)) treatment on cell viability in ES cell lines. (A) Cell lysates were prepared from the indicated cell lines and analyzed by WB for total IGF-1R expression and GAPDH as a loading control. […] Data correspond to the mean±SEM from three independent experiments. […] (C) Indicated cells were treated without and with 100 ng/ml CP for 48 h in the absence (SFM) or presence of 10% fetal bovine serum (Serum) and cell viability assayed by PrestoBlue reagent. […] Data correspond to the mean±SEM from three independent experiments. Statistical analysis compared with SKBR3: *P<0.05, **P<0.01, **P<0.001.
FIG. 6A-FIG. 6C. […] Cell lysates were prepared from the same samples and analyzed by WB for β-arrestin1 (βarr1) and GAPDH as a loading control. Signals were quantified by densitometry, normalized to GAPDH and presented as a percentage of the doxycycline untreated cells. […] During the experiment, cell lysates were collected at 10 min after CP stimulation and analyzed by WB for P-ERK and total ERK as a loading control and at 12 h after CP stimulation and analyzed by WB for IGF-1R and GAPDH as a loading control. Signals were quantified by densitometry, normalized to the loading control and presented as a percentage of the CP untreated cells. […]

IGF-1R = biological target: T1, IGF-1R (Homo sapiens, UniProt P08069); experiment: IGF-1R downregulation in ES cell lines (western blot)
T1 construct: all the ES cell lines tested expressed IGF-1R; endogenous in cells; host or cells: Ewing's sarcoma cell lines SKES, RDES, CADO, A673, SKNMC
Protocol: FIG. 2A-FIG. 2D. […] (A) Cells incubated in serum free medium for 12 h were treated with 0, 0.1 or 1 μg/ml CP for 24 h. Protein lysates were analyzed by WB for IGF-1R and GAPDH as a loading control. […] Protein lysates were analyzed by WB for IGF-1R and GAPDH as a loading control. Signals were quantified by densitometry, normalized to GAPDH and expressed as a percentage of the IGF-1R at 0 h. Data correspond to the mean±SEM from three independent experiments. […] IGF-1R was immunoprecipitated from lysates and analyzed by WB (IB) for ubiquitination (Ub) and IGF-1R as a loading control. Molecular weight markers in KDa are indicated to the left of the panels. (D) β-Arrestin1 (β-arr1) was immunoprecipitated from cell lysates prepared as for (C). Immunoprecipitated proteins were analyzed by WB for IGF-1R. The whole lysates were analyzed by WB for GAPDH as a loading control.
Appropriate primary antibody was incubated overnight at 4° C.
Given that β-arrestin1 (β-arr1) is a key protein involved in IGF-1R ubiquitination, we also investigated ligand induced IGF-1R/β-arr1 association.

MCF7 = experiment: PrestoBlue cell viability, anti-IGF-1R antibody with U0126, MCF7 (breast carcinoma); settings: 48 h
Protocol: Cells were incubated in 96 well tissue culture plates and cell viability was measured by PrestoBlue cell viability assay (Invitrogen, CA, USA) according to manufacturer's instructions. Fluorescence was measured with excitation at 560 nm and emission at 590 nm. Cell number was calculated from standard curves of fluorescence measurements from known numbers of cells. Triplicate cultures were performed on all experiments.
The effects of anti-IGF-1R antibodies/MEK inhibitor combination treatment on viability of different types of tumor cells were investigated using PrestoBlue cell viability assay (Invitrogen, CA, USA) according to manufacturer's instructions. (Table 3).
Cells were incubated in serum free medium for 12 h followed by pretreatment for 60 min without or with 0.5, 1, 3 or 5 μM of the ERK inhibitor U0126, and then treated without or with 100 ng/ml anti-IGF-1R antibodies (Figitumumab or αIR-3 (Calbiochem, US). Cells were incubated in 96 well tissue culture plates for 48 hours and cell viability was measured by PrestoBlue cell viability assay. Fluorescence was measured with excitation at 560 nm and emission at 590 nm. Cell number was calculated from standard curves of fluorescence measurements from known numbers of cells. Triplicate cultures were performed on all experiments. The inhibition induced by anti-IGF-1R antibodies treated cells was calculated as percentage of untreated cells.

Rate of receptor degradation (IGF-1R; A673 cells, time-response): very fast
B1: CP-751,871: anti-IGF-1R antibody figitumumab (Pfizer), IGF-1R antagonist (antibody, chains of the INN, looked up)
heavy: EVQLLESGGGLVQPGGSLRLSCTASGFTFSSYAMNWVRQAPGKGLEWVSAISGSGGTTFYADSVKGRFTISRDNSRTTLYLQMNSLRAEDTAVYYCAKDLGWSDSYYYYYGMDVWGQGTTVTVSSASTKGPSVFPLAPCSRSTSESTAALGCLVKDYFPEPVTVSWNSGALTSGVHTFPAVLQSSGLYSLSSVVTVPSSNFGTQTYTCNVDHKPSNTKVDKTVERKCCVECPPCPAPPVAGPSVFLFPPKPKDTLMISRTPEVTCVVVDVSHEDPEVQFNWYVDGVEVHNAKTKPREEQFNSTFRVVSVLTVVHQDWLNGKEYKCKVSNKGLPAPIEKTISKTKGQPREPQVYTLPPSREEMTKNQVSLTCLVKGFYPSDIAVEWESNGQPENNYKTTPPMLDSDGSFFLYSKLTVDKSRWQQGNVFSCSVMHEALHNHYTQKSLSLSPG
light: DIQMTQFPSSLSASVGDRVTITCRASQGIRNDLGWYQQKPGKAPKRLIYAASRLHRGVPSRFSGSGSGTEFTLTISSLQPEDFATYYCLQHNSYPCSFGQGTKLEIKRTVAAPSVFIFPPSDEQLKSGTASVVCLLNNFYPREAKVQWKVDNALQSGNSQESVTEQDSKDSTYSLSSTLTLSKADYEKHKVYACEVTHQGLSSPVTKSFNRGEC
Cell viability (cell number) of ES cell lines ([1]; 100 ng/ml, presence or absence of serum, all ES cell lines): decreased cell number
Sensitivity (cell viability) of combined treatment with MEK inhibitor U0126 versus CP-751,871 alone ([1]; ES cell lines, U0126 pre-treatment 60 min, 100 ng/ml CP): increased sensitivity
IGF-1R downregulation (IGF-1R; 100 ng/ml or 1 μg/ml, 24 h, serum starved, all ES cell lines): downregulate IGF-1R in a dose dependent manner
Receptor degradation compared with IGF-1 (time-response) (IGF-1R; SKES, RDES, CADO and SKNMC, molar concentration approximately 10 fold less than IGF-1): more efficient at inducing receptor degradation
Percentage inhibition of antibody treated cells (100 ng/ml) (MCF7; U0126 0 μM (60 min pretreatment)): 15%
Percentage inhibition of antibody treated cells (100 ng/ml) (MCF7; U0126 0.5 μM (60 min pretreatment)): 18%
Percentage inhibition of antibody treated cells (100 ng/ml) (MCF7; U0126 1 μM (60 min pretreatment)): 25%
Percentage inhibition of antibody treated cells (100 ng/ml) (MCF7; U0126 3 μM (60 min pretreatment)): 18%
Percentage inhibition of antibody treated cells (100 ng/ml) (MCF7; U0126 5 μM (60 min pretreatment)): 33%
